Assay results as given in paper doi:10.1101/2021.04.22.440577 (bioRxiv, 2021).

B1: N-terminal cytosolic region of EPEC Tir (N-Tir, residues 1-233) (domain or fragment, enteropathogenic Escherichia coli (EPEC), UniProt B7UM99 1-233, looked up)
chain: MPIGNLGNNVNGNHLIPPAPPLPSQTDGAARGGTGHLISSTGALGSRSLFSPLRNSMADSVDSRDIPGLPTNPSRLAAATSETCLLGGFEVLHDKGPLDILNTQIGPSAFRVEVQADGTHAAIGEKNGLEVSVTLSPQEWSSLQSIDTEGKNRFVFTGGRGGSGHPMVTVASDIAEARTKILAKLDPDNHGGRQPKDVDTRSVGVGSASGIDDGVVSETHTSTTNSSVRSDPK
B2: Structured central part of N-Tir (N-Tir 60-200, NS-Tir) (domain or fragment, enteropathogenic Escherichia coli (EPEC), UniProt B7UM99 60-200, looked up)
chain: SVDSRDIPGLPTNPSRLAAATSETCLLGGFEVLHDKGPLDILNTQIGPSAFRVEVQADGTHAAIGEKNGLEVSVTLSPQEWSSLQSIDTEGKNRFVFTGGRGGSGHPMVTVASDIAEARTKILAKLDPDNHGGRQPKDVDT

Columns and labels:
[1] = biological target: 4-fold tyrosine-phosphorylated C-Tir (pC-Tir), EPEC Tir residues 388-550 phosphorylated by Fyn (enteropathogenic Escherichia coli (EPEC)) (UniProt B7UM99); assay: NMR titration
SEC + other: SAXS = biological target: the molecule itself; assay: SEC + other: SAXS

4-fold tyrosine-phosphorylated C-Tir (pC-Tir), EPEC Tir residues 388-550 phosphorylated by Fyn (enteropathogenic Escherichia coli (EPEC)), sequence (B7UM99 388-550): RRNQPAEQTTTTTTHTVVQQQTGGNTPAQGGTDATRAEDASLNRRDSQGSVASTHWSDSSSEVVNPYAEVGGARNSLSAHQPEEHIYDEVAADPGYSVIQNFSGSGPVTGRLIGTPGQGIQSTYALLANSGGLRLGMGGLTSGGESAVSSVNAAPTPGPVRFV

| Molecule | apparent local KD of the remaining pY sites (pY474, pY483, pY511) [1] | fold enhancement of binding at the Y511 ITIM against unphosphorylated C-Tir [1] | stoichiometry N (SEC + other: SAXS) |
| --- | --- | --- | --- |
| C-terminal SH2 domain (C-SH2) of host tyrosine phosphatase SHP-1 (domain or fragment) | 3 to 9 μM | 10 fold | – |
| B1 | – | – | 2 |
| B2 | – | – | 2 |
